Tests used:
Test in all cases: pull-down binding Z-score (relative to library population); higher = stronger binding
TO-N3 (biotin conjugate) = details: RNA library: Library-2
Procedure, shortened: (§1)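 Streptavidin beads with 100 pmol of biotin-conjugated small molecule were incubated for 60 min at 25 °C with 1 μg of heat-folded Cy5- or Cy3-end-labelled RNA library in phosphate/NaCl/KCl buffer. Bound RNA was eluted in hot SDS after three washes and hybridised to a DNA barcode microarray at 55.5 °C for 20 h. Each binding score is a library-referenced Z-score, computed after beads-only subtraction and a trimmed mean of barcoded replicate probes.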

[1] = tested on: G-clamp-N3 (biotin conjugate); details: RNA library: Library-1 (pre-miRNA loops + repeats)
Procedure, shortened: as §1

[2] = tested on: TO-N3-2 (biotin conjugate); details: RNA library: Library-2
Procedure, shortened: as §1

[3] = tested on: TO-3-N3-2 (biotin conjugate); details: RNA library: Library-2
Procedure, shortened: as §1

[4] = tested on: TO-3-N3 (biotin conjugate); details: RNA library: Library-2
Procedure, shortened: as §1

Row | Sequence | pull-down binding Z-score (TO-N3 (biotin conjugate)) | pull-down binding Z-score [1] | pull-down binding Z-score [2] | pull-down binding Z-score [3] | pull-down binding Z-score [4]
1 | CAAUCAUGUGUAAUUAGAUAUGAUUG [hsa-mir-514b] | -1.38 | 0.559 | -1.33 | -0.732 | -1.06
2 | CAAUGAAGACAUGAAGACCCAAUGUCUUCAUUG [hsa-mir-4529] | -1.17 | -0.114 | -1.1 | -0.347 | -0.88
3 | CAAUUUGAGACCAAU [hsa-mir-1285-2] | -0.0272 | -1.39 | 0.218 | 0.444 | -0.0235
4 | CACAAAUAUGGCUCUUUGUG [hsa-mir-4474] | -0.809 | -0.738 | -0.657 | -0.469 | -0.637
5 | CACAAGACUAGGCUUCCCUGUG [hsa-mir-3152] | 0.13 | -0.785 | -0.0548 | 0.0303 | 0.212
6 | CACAAUAUUUAGGACAACAAUAUU [hsa-mir-1302-6] | -0.362 | -0.807 | -0.518 | 0.226 | -0.282
7 | CACACACAAUCACCAUGUG [hsa-mir-3118-1] | -0.942 | -0.57 | -1.07 | -0.386 | -0.577
8 | CACACACAAUCACCGUGUG [hsa-mir-3118-2_3118-3_3118-4] | -0.218 | 0.27 | -1.24 | -0.0846 | 0.0723
9 | CACACAUACAUAUAUAUAUGUUUG [hsa-mir-3149] | 0.379 | -0.604 | -0.501 | 0.18 | 0.618
10 | CACACGCUUUAUUUGUGCCGUUUG [hsa-mir-758] | -0.164 | -0.691 | -0.655 | -0.318 | -0.0281
11 | CACACUGGUGAGGUAACAGGAUCCGGUG [hsa-mir-182] | 0.38 | 0.926 | 0.691 | 0.0141 | 0.159
12 | CACAGAGUAAGCAUCAAUAGCAUUGGCAAGUUGAACUGAGCUGUC [hsa-mir-6895] | 0.466 | -0.438 | 1.37 | -0.0293 | -0.393
13 | CACAGUUCUGG [hsa-mir-761] | 0.102 | 0.647 | 0.18 | -0.473 | 0.292
14 | CACCAAAGGGUUAAGGGUUUGCUCUGGAG [hsa-mir-4653] | 0.124 | -0.264 | 0.14 | 0.0957 | -0.018
15 | CACCAGCCAGGCAUUGCUCAGCCCGUUUCCCUCUGGGGGAGCAAGGAGUGGUGCUGGGUUUGUC [hsa-mir-593] | 1.15 | -0.156 | 1.24 | -0.0489 | 0.762
16 | CACCUCCCGGCCCGGAGCUG [hsa-mir-4734] | -0.0704 | 0.0744 | 0.527 | -0.473 | -0.243
17 | CACGAGAUACCAGUGUGCACUUGUG [hsa-mir-542] | -0.441 | -0.858 | 0.103 | -0.425 | -0.51
18 | CACGAGAUUGGGUUGUGCAGAGGCUGACACUUG [hsa-mir-5004] | -0.0226 | 0.93 | 0.63 | 0.0781 | -0.363
19 | CACGCAUUUGCUUUACUUGCAAUGAUUAUA [hsa-mir-300] | 0.583 | -0.374 | 0.472 | 0.215 | 0.485

Row | Sequence | pull-down binding Z-score (TO-N3 (biotin conjugate)) | pull-down binding Z-score [1] | pull-down binding Z-score [2] | pull-down binding Z-score [3] | pull-down binding Z-score [4]
20 | CACGCCGCGCCGCCGGGUCCCUCCUCCCCGGAGAGGCUG [hsa-mir-4674] | 0.606 | 0.455 | 1.56 | -0.048 | 0.257
21 | CACUAAUGUGAUUAAUGUUGUUGUG [hsa-mir-3657] | -0.611 | -1.39 | -0.402 | -0.0793 | -0.405
22 | CACUACAAGAAGAAUGUAGUUGUG [hsa-mir-19a] | -0.154 | 1.3 | 0.739 | 0.234 | -0.108
23 | CACUCAGGCAGUGCCAUGAGC [hsa-mir-6811] | 0.408 | -0.12 | 0.422 | -0.366 | 0.249
24 | CACUCAGUAAAUAUUUGUUGAGUG [hsa-mir-1271] | -0.674 | 0.231 | -1.18 | -0.186 | -0.368
25 | CACUCCCGGGAUCCCCAGGGAC [hsa-mir-3176] | 0.25 | -1.23 | 0.68 | -0.144 | 0.149
26 | CACUCCCGUGCUUGUCCGAGGAGGGAGG [hsa-mir-149] | 2.63 | 1.29 | 2.78 | 0.731 | 1.78
27 | CACUCUCCCUAAUGGGGCUGAAGACAGCUCAGGGGCAGGGUG [hsa-mir-4472-1] | -0.273 | 1.88 | 0.191 | -0.583 | -0.357
28 | CACUGAUUCAGUAAAAUACUCAGUG [hsa-mir-891a] | -1.09 | -0.252 | -1.35 | -0.845 | -0.707
29 | CACUGCAGUUACCCUCCCCUCGGCGUUACUGAGCACUG [hsa-mir-637] | 0.603 | -0.893 | 0.948 | 0.224 | 0.22
30 | CACUUUCUGCUCUCUGGUGAAAGUG [hsa-mir-371a] | -0.0106 | 0.951 | -0.309 | -0.0736 | 0.0211
31 | CAGACAAUAUAGCUGAGUUUGUCUG [hsa-mir-215] | -1.24 | -0.604 | -1.03 | -0.547 | -0.801
32 | CAGACCAUGCCACAUCCGUCUG [hsa-mir-7152] | -0.651 | -0.704 | -0.334 | -0.604 | -0.515
33 | CAGACGGCUUUCUCUCCGAAUGUCUG [hsa-mir-2276] | -1.12 | -0.958 | -0.639 | -0.376 | -0.908
34 | CAGACUCUG [hsa-mir-4326] | -0.0561 | 1.33 | -0.0772 | -0.381 | 0.067
35 | CAGACUGUCUUCCCAAAUAGCCUG [hsa-mir-4772] | -0.0312 | -1.42 | -0.223 | -0.219 | 0.00537
36 | CAGAGAUGAAAUUGGGACUCCUCU [hsa-mir-7157] | 0.499 | -0.282 | 0.835 | 0.343 | 0.189
37 | CAGAGCUGCAGCUGCUCCACCCUG [hsa-mir-6730] | 1.12 | -0.915 | 1.42 | 0.319 | 0.563
